Measured values: patent US20140107039

How the values were obtained:
[1] = test system: H3K27ac peptide (18-37)
[2] = test system: H3.3K27M peptide (18-37)
H3.3K27M peptide (18-37), sequence (chain, as listed by the source): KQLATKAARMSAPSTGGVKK

Polycomb Repressive Complex 2 (PRC2), purified through FLAG-tagged human EED from HeLa or HEK293T nuclear extract
Apparent Vmax of PRC2 methyltransferase reaction at varying mononucleosome concentrations [1]: PRC2 reactions that contained H3K27ac peptide of identical peptide concentrations did not decrease the apparent Vmax of the reaction | Apparent Vmax of PRC2 methyltransferase reaction at varying mononucleosome concentrations [2]: showed a reduction in the apparent Vmax by addition of the K27M peptide
